Assay results reported in the supplement of paper PMC7125110.
± gives the standard error. Fewer inactive variants are shown than the library holds.

B1: glmS ribozyme (parent)
chain: AUAAAAGCGCCAGAACUACAGAAAUGUAGUUGACGAGGAGGAGGUUUAUCGAAUUUUCGGCGGAUGCCUCCAAA

Key:
Conditions in all cases: with glucosamine-6-phosphate
glucosamine-6-phosphate [1] = variants of: B1; assay: self-cleavage kobs at 40 uM GlcN6P; higher = faster cleavage; RNA array
Method in brief: (§1)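 Sequenced MiSeq chips were the platform: E. coli RNA polymerase transcribed barcoded ribozyme variants on them in situ, and a hybridised Cy3 probe tracked these at 37 °C. After glucosamine-6-phosphate (40 μM to 10 mM) in HEPES/KCl/Mg(OAc)2 buffer was flowed in, tiles were imaged over ~14 h. Signals normalised to baseline and to non-cleaving reference variants were reduced to per-tile medians and fit to one- or two-exponential decays to obtain kobs. kcat and KM were derived through weighted Michaelis–Menten fits across concentrations.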

glucosamine-6-phosphate [2] = variants of: B1; assay: self-cleavage kobs at 160 uM GlcN6P; higher = faster cleavage; RNA array
Method in brief: as §1

glucosamine-6-phosphate [3] = variants of: B1; assay: self-cleavage kobs at 640 uM GlcN6P; higher = faster cleavage; RNA array
Method in brief: as §1

glucosamine-6-phosphate [4] = variants of: B1; assay: self-cleavage kobs at 10000 uM GlcN6P; higher = faster cleavage; RNA array
Method in brief: as §1

glucosamine-6-phosphate [5] = variants of: B1; assay: self-cleavage kobs at 2500 uM GlcN6P; higher = faster cleavage; RNA array
Method in brief: as §1

Variant | self-cleavage kobs at 40 uM GlcN6P (glucosamine-6-phosphate [1]) [s⁻¹] | self-cleavage kobs at 160 uM GlcN6P (glucosamine-6-phosphate [2]) [s⁻¹] | self-cleavage kobs at 640 uM GlcN6P (glucosamine-6-phosphate [3]) [s⁻¹] | self-cleavage kobs at 10000 uM GlcN6P (glucosamine-6-phosphate [4]) [s⁻¹] | self-cleavage kobs at 2500 uM GlcN6P (glucosamine-6-phosphate [5]) [s⁻¹]
AUAAAAGCGCCAGAACUACAGAAAUGUAGUUGACGAGGAGAAGGUUUAUCGAAUUUUCGGCAGAUGCCUCCAAA [G41A G62A] | < 1e-05 | < 1e-05 | < 1e-05 | < 1e-05 | –
AUAAAAGUGCCAGAACUACAGAAAUGUAGUUAACGAGGAGUAGGUUUAUCGAAUUUUCGGCGGAUGCCUCCAAA [C8U G32A G41U] | < 1e-05 | < 1e-05 | < 1e-05 | < 1e-05 | < 1e-05
AUAAAAGCGCCAGAACUACAGAAAUGUAGUUGACGAGGAUGAGGUUUAUCGAAUUUUCCUCGGAUGCCUGCAAA [G40U G59C G60U C70G] | < 1e-05 | – | – | < 1e-05 | –
AUAAAAGCGUCGGAACUACAGAAAUGUAGUUUACGUGGAGGAGGUUUAUCGAAUUUUCGGCGGAUGCCUUCAAA [C10U A12G G32U A36U C70U] | < 1e-05 | – | – | – | –
AUAAAAGCGCCAGAACUACAGAAAUGUAGUUGACGAGGAGGAGGUGUAUCUAAUUUUCGGCGGAUGCCUCCAAA [U46G G51U] | < 1e-05 | < 1e-05 | < 1e-05 | < 1e-05 | < 1e-05
AUAAAAGCGGCAGAACUACAGAAAUGUAGUUGACGAGGAGGAGGUUUAUCGAAUUUUCGGUGGAUGCCUCAAAA [C10G C61U C71A] | < 1e-05 | – | – | – | –
AUAAAAGCGACAGAACUACAGAAAUGUAGUUGACGAGUAGGAGGUUUAUCGAAUUUUCGGCGGAUGCCUCCAAA [C10A G38U] | < 1e-05 | < 1e-05 | < 1e-05 | – | –
AUAAAAGCGCCAGAACUACAGAAAUGUAGUUGACGUGGAGGAGGUUUUUCGAAUUUUCGGCGGAUGCCUCCAAA [A36U A48U] | < 1e-05 | < 1e-05 | – | < 1e-05 | < 1e-05
AUAAACGCGCCAGAACUACAGAAAUGUAGUUGACGAGGAGGAGGUUUAUCGAAUUUUGGGCGGAUGCCUCCAAA [A6C C58G] | < 1e-05 | – | < 1e-05 | < 1e-05 | –
AUAAAAGCGCCAGAACUACAGAAAUGUAUUUGACGAGGAGGAGAUUUAUCGAAUUUUCGGCGGAUGCCUCCAAA [G29U G44A] | < 1e-05 | < 1e-05 | – | 3.45e-05 ± 9.6e-06 | –
AUAAAGGCGCCAGAACUACAGAAAUGUAGUUGACGAGGAGGAGGUUUAUCGAAUUUUCGGCGGAUGAUUCCAAA [A6G C67A C68U] | < 1e-05 | – | – | – | –
AUAAAAGCGCCAGAACUACAGAAAUGUAGUUGACGAGGAGGAGGUUUAUCGAAUUUUCGGGGGAUGCCUCGAAA [C61G C71G] | 3.55e-05 ± 1.3e-05 | 0.000119 ± 3e-05 | 7.69e-05 ± 2.5e-05 | – | 4.16e-05 ± 1.6e-05
AUAAAAGCGCCAGCACUACAGAAAUGUAGUUGACGCGGAGGAGGUUUAUCGAAUUUUCGGGGGAUGCCUCCAAA [A14C A36C C61G] | < 1e-05 | – | – | – | –
AUAAAAGCGCCAAAACUACAGAAAUGUAGUUGACGAGGAGGAGGUUUUUCGAAUUUUCGGCGGAUGCCUCCAAA [G13A A48U] | < 1e-05 | < 1e-05 | < 1e-05 | – | –
